For 9 sequences, Kd results are on record in the Immune Epitope Database (IEDB).

A word on the pKd: it is −log10 of the Kd, conventionally taken in molar units. A low value points to a high Kd.

One test addresses HLA-A*01:01. Put plainly: IEDB peptide-MHC binding, purified MHC/direct/fluorescence; filed as Kd, often an IC50 or EC50 that approximates it; ≥ and ≤ were set here for values at or beyond the usual limits of such assays.
For the next test, the target named is HLA-A*80:01. Described as above.
The target of another test is HLA-A*02:03. The test is described as above.
The next test has as its target HLA-A*02:11. The test is described as above.
For another test, the target named is HLA-A*02:12. The description is as above.
Another test addresses HLA-A*02:16. The description is as above.
In another test the target is HLA-A*02:19. The description is as above.
The target in a further test is HLA-A*11:01. Described as above.
A further test has as its target HLA-A*23:01. The test is described as above.
For the next test, the target named is HLA-A*24:03. The description is as above.
For a further test, the target named is HLA-A*29:02. The description is as above.
The next test addresses HLA-A*68:02. Described as above.
Test [1] has as its target HLA-A*02:01. The test can be described thus: IEDB peptide-MHC binding, purified MHC/competitive/fluorescence; filed as Kd, often an IC50 or EC50 that approximates it; ≥ and ≤ were set here for values at or beyond the usual limits of such assays.
The target of another test is HLA-A*26:01. Described as above.
Test [2] deals with HLA-A*69:01. The test is described as above.
In the next test the target is HLA-B*15:17. Described as above.
Test [3] deals with HLA-B*18:01. Described as above.
A further test deals with HLA-B*39:01. Described as above.
The target in test [4] is HLA-B*46:01. The description is as above.
The target of a further test is HLA-B*51:01. Described as above.
The target of test [5] is HLA-B*57:01. Described as above.
In a further test the target is HLA-A*31:01. Put plainly: IEDB peptide-MHC binding, purified MHC/direct/fluorescence; filed as Kd, often an IC50 or EC50 that approximates it; ≥ and ≤ were set here for values at or beyond the usual limits of such assays. Conditions: source organism: West Nile virus.
Test [6] concerns the target HLA-A*69:01. The description is as above. To be noted: source organism: West Nile virus.
In test [7] the target is HLA-B*18:01. The description is as above.
The next test has as its target HLA-B*27:05. Described as above.
The next test has as its target HLA-B*40:01. The description is as above.
A further test addresses HLA-B*44:02. Described as above.
The target of test [8] is HLA-B*46:01. The description is as above.
The next test addresses HLA-B*48:01. The description is as above. Conditions: source organism: West Nile virus.
For test [9], the target named is HLA-B*57:01. Described as above. To be noted: source organism: West Nile virus.
The target of a further test is HLA-B*58:01. The test is described as above.
Another test has as its target HLA-A*24:02. Described as above.
A further test concerns the target HLA-A*03:01. The test is described as above.
A further test concerns the target HLA-B*27:03. Put plainly: IEDB peptide-MHC binding, purified MHC/competitive/fluorescence; filed as Kd, often an IC50 or EC50 that approximates it; ≥ and ≤ were set here for values at or beyond the usual limits of such assays. To be noted: source organism: Bacillus anthracis str. A0488.
In test [10] the target is HLA-A*02:01. The test can be described thus: IEDB peptide-MHC binding, purified MHC/direct/fluorescence; filed as Kd, often an IC50 or EC50 that approximates it; ≥ and ≤ were set here for values at or beyond the usual limits of such assays. Conditions: source organism: Giardia lamblia ATCC 50803.
The target of the next test is HLA-B*07:02. The test is described as above. To be noted: source organism: Giardia lamblia ATCC 50803.
The target of another test is HLA-B*15:01. The test is described as above. Conditions: source organism: Giardia lamblia ATCC 50803.
Where [11] appears, read: source organism: Bacillus anthracis.
Setting [12] is: source organism: Bacillus anthracis str. Sterne.
The mark [13] stands for this setting: source organism: Bacillus anthracis str. A2012.
[14] abbreviates: source organism: West Nile virus.
[15] abbreviates: source organism: Orthohantavirus andesense.
The mark [16] stands for this setting: source organism: Burkholderia mallei ATCC 23344.
[17] abbreviates: source organism: Bacillus cereus 03BB108.
[18] abbreviates: source organism: Bacillus anthracis str. A0488.
[19] abbreviates: source organism: Giardia lamblia ATCC 50803.

pKd: −log10 of the molar value.

Turning to VLRACWNEK, the pKd with HLA-A*01:01 (setting [11]) and with HLA-A*80:01 (setting [11]) was no more than 4.70 in each case.
For the sequence KKNHWFILK, the pKd with HLA-A*02:03 (setting [12]) was no more than 4.70; in the test with HLA-A*02:11 (setting [12]), no more than 4.70; with HLA-A*02:12 (setting [12]) it was no more than 4.70; with HLA-A*02:16 (setting [12]), no more than 4.70; in the test with HLA-A*02:19 (setting [12]) it was no more than 4.70; in the test with HLA-A*11:01 (setting [12]), 6.60. The pKd with HLA-A*23:01 (setting [12]), with HLA-A*24:03 (setting [12]), with HLA-A*29:02 (setting [12]), with HLA-A*68:02 (setting [12]), with HLA-A*02:01 [1] (setting [13]) and in the test with HLA-A*26:01 (setting [13]) was no more than 4.70 throughout. In addition, the pKd in the test with HLA-A*69:01 [2] (setting [13]), with HLA-B*15:17 (setting [13]), in the test with HLA-B*18:01 [3] (setting [13]), with HLA-B*39:01 (setting [13]), with HLA-B*46:01 [4] (setting [13]) and with HLA-B*51:01 (setting [13]) was no more than 4.70 each time. This sequence had a pKd in the test with HLA-B*57:01 [5] (setting [13]) of no more than 4.70.
As to MLRKKQITV, the pKd in the test with HLA-A*01:01 (setting [14]), in the test with HLA-A*29:02 (setting [14]), with HLA-A*31:01, in the test with HLA-A*69:01 [6], with HLA-A*80:01 (setting [14]) and in the test with HLA-B*18:01 [7] (setting [14]) was no more than 4.70 each time. Also, the pKd in the test with HLA-B*27:05 (setting [14]), with HLA-B*40:01 (setting [14]), with HLA-B*44:02 (setting [14]), in the test with HLA-B*46:01 [8] (setting [14]), with HLA-B*48:01 and in the test with HLA-B*57:01 [9] was no more than 4.70 each time. This sequence showed a pKd with HLA-B*58:01 (setting [14]) of no more than 4.70.
For the sequence IFQKISFFW, the pKd in the test with HLA-A*24:02 (source organism: Cryptosporidium parvum Iowa II) was 7.77.
As to HSDDALFIY, the pKd was no more than 4.70 with HLA-A*01:01 (setting [15]) and 4.80 in the test with HLA-A*80:01 (setting [15]).
Regarding SVHYKFVTK, the pKd with HLA-A*01:01 (setting [11]) and with HLA-A*80:01 (setting [11]) was no more than 4.70 in each case.
Take CYRGVRHRK: the pKd with HLA-A*23:01 (setting [16]) is 6.39; in the test with HLA-A*24:03 (setting [16]), 5.86.
SYMLQGLRK: the pKd with HLA-A*02:03 (setting [17]), in the test with HLA-A*02:11 (setting [17]), with HLA-A*02:12 (setting [17]), with HLA-A*02:16 (setting [17]), in the test with HLA-A*02:19 (setting [17]) and with HLA-A*03:01 (setting [17]) was no more than 4.70 in each case. Further, the pKd with HLA-A*11:01 (setting [17]) was 6.64; in the test with HLA-A*23:01 (setting [17]), no more than 4.70; in the test with HLA-A*24:03 (setting [17]) it was no more than 4.70; with HLA-A*68:02 (setting [17]) it was no more than 4.70; in the test with HLA-A*02:01 [1] (setting [18]), no more than 4.70; with HLA-A*26:01 (setting [18]), no more than 4.70. Further, the pKd in the test with HLA-A*69:01 [2] (setting [18]), with HLA-B*15:17 (setting [18]), with HLA-B*18:01 [3] (setting [18]), with HLA-B*27:03, with HLA-B*39:01 (setting [18]) and in the test with HLA-B*46:01 [4] (setting [18]) was no more than 4.70 throughout. Further, the pKd in the test with HLA-B*51:01 (setting [18]) and with HLA-B*57:01 [5] (setting [18]) was no more than 4.70 throughout.
Consider WLKEKHEEL, for which the pKd in the test with HLA-A*01:01 (setting [19]) is no more than 4.70; with HLA-A*02:01 [10] it was 6.52; in the test with HLA-A*03:01 (setting [19]) it was no more than 4.70; with HLA-A*11:01 (setting [19]) it was no more than 4.70; in the test with HLA-A*24:02 (setting [19]), no more than 4.70; with HLA-B*07:02, no more than 4.70. For the same sequence, the pKd in the test with HLA-B*15:01 was 6.30; with HLA-B*18:01 [7] (setting [19]) it was no more than 4.70; in the test with HLA-B*27:05 (setting [19]) it was no more than 4.70; in the test with HLA-B*40:01 (setting [19]), no more than 4.70; in the test with HLA-B*44:02 (setting [19]) it was no more than 4.70; in the test with HLA-B*46:01 [8] (setting [19]) it was no more than 4.70. This sequence showed a pKd with HLA-B*58:01 (setting [19]) of no more than 4.70.
